Here are results for 1 molecule from paper PMC11805834 (Applied Microbiology and Biotechnology, 2025).

This assay concerns the target T1, mouse CD80-Fc fusion protein (mouse, UniProt Q00609 38-246).
T1 sequence: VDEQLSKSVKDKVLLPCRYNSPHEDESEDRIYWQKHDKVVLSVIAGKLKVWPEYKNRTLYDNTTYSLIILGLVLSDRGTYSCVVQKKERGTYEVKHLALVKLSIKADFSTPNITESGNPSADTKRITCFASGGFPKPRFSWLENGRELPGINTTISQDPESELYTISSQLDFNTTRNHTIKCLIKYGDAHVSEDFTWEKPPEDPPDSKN
Put plainly: SPR. Background: In SPR one partner is held on a chip, and binding of the other changes the refractive index at the surface.

B1: Mouse CD28 protein with His tag (receptor)
chain: NKILVKQSPLLVVDSNEVSLSCRYSYNLLAKEFRASLYKGVNSDVEVCVGNGNFTYQPQFRSNAEFNCDGDFDNETVTFRLWNLHVNHTDIYFCKIEFMYPPPYLDNERSNGTIIHIKEKHLCHTQSSPKL
For orientation: Kd means a measure of binding affinity in units of concentration. Higher therefore signals a looser complex. B1 returned a dissociation constant Kd of 2.49 µM.
